The test system of the data set is Saccharomyces cerevisiae. The data set is described as follows: protein stability index of tFT-peptide fusion (C-terminal peptide) (PSI (0-1 scale)); higher = more stable (slower turnover). The conditions noted are these: temperature: 30 C. As for the experimental part:
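MPS profiling in S. cerevisiae of the yeast C-terminome library: the last 12 aa of each annotated ORF are fused to the C-terminus of a sfGFP-mCherry timer, after a GGGS linker. Cells are FACS-sorted into 8 mCherry/sfGFP bins and deep-sequenced. PSI runs from 0 (unstable) to 1 (stable); wild type and das1Δ backgrounds, two technical replicates each.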

Setting [1] is: genetic background: das1 deletion.

± gives the standard deviation of the averaged measurements.

For the sequence DLEMEVIAVEKN [MMF1 C-terminal 12 aa], the protein stability index by setting is: under setting [1], 0.681 ± 0.0085; (genetic background: wild type) 0.674 ± 0.034.

DLKKLIWNEIFS [FUS3 C-terminal 12 aa]: the protein stability index reads like this: under setting [1], 0.707 ± 0.021; (genetic background: wild type) 0.684 ± 0.027.

DLQSLIESNGFA [PFK27 C-terminal 12 aa] displayed a protein stability index under setting [1] of 0.689 ± 0.021 and a protein stability index (genetic background: wild type) of 0.689 ± 0.026.

For the sequence DMLYDELMKTME [KSS1 C-terminal 12 aa], the protein stability index runs as follows: under setting [1], 0.7032 ± 0.00096; (genetic background: wild type) 0.666 ± 0.022.

With DNNDLAKSSSQK [CMI7 C-terminal 12 aa], the protein stability index under setting [1] was found to be 0.7059 ± 0.0068 and the protein stability index (genetic background: wild type) amounted to 0.66 ± 0.048.

Turning to DNNTVTANPTAR [YJR012C C-terminal 12 aa], the protein stability index is 0.7033 ± 0.0028 under setting [1] and 0.6523 ± 0.003 (genetic background: wild type).

With DRCKEAVDHLMS [ISM1 C-terminal 12 aa], the protein stability index amounted to 0.686 ± 0.011 under setting [1] and 0.70544 ± 0.00054 (genetic background: wild type).

For the sequence DRIAAQTLEEDE [RPS19A C-terminal 12 aa], the protein stability index runs as follows: under setting [1], 0.687 ± 0.031; (genetic background: wild type) 0.693 ± 0.05.

On to DSDLFFVAEAIS [YIL032C C-terminal 12 aa], for which the protein stability index by setting is: under setting [1], 0.7373 ± 0.0022; (genetic background: wild type) 0.703 ± 0.022.

Take DSFVEFWGRILY [PUL4 C-terminal 12 aa]: the protein stability index was found to be 0.704 ± 0.033 under setting [1] and 0.6623 ± 0.0034 (genetic background: wild type).

On to DSVIVVLKTPVE [SMD2 C-terminal 12 aa], for which the protein stability index was determined as 0.67383 ± 0.00026 under setting [1] and 0.658 ± 0.041 (genetic background: wild type).

On to DTDGMQDQSSNI [IVY1 C-terminal 12 aa], for which the protein stability index is 0.693 ± 0.019 under setting [1] and 0.679 ± 0.019 (genetic background: wild type).

DVDLTKSGGFKT [CKB2 C-terminal 12 aa]: the protein stability index was 0.67664 ± 0.00023 under setting [1] and 0.714 ± 0.058 (genetic background: wild type).

As to DVHSKIEKQLGI [UMP1 C-terminal 12 aa], the protein stability index was determined as 0.7202 ± 0.0061 under setting [1] and 0.697 ± 0.017 (genetic background: wild type).

For the sequence DWVSHGGDKLDL [RDL1 C-terminal 12 aa], the protein stability index is, setting by setting: under setting [1], 0.703 ± 0.042; (genetic background: wild type) 0.704 ± 0.012.

In the case of EAAKKSEKKSKK [RPL34B C-terminal 12 aa], the protein stability index by setting is: under setting [1], 0.702 ± 0.015; (genetic background: wild type) 0.706 ± 0.042.

EAQTSRAKNELS [PHD1 C-terminal 12 aa] displayed a protein stability index under setting [1] of 0.6855 ± 0.004 and a protein stability index (genetic background: wild type) of 0.575 ± 0.011.

In the case of EAVKNDDIQIFG [BFR2 C-terminal 12 aa], the protein stability index by setting is: under setting [1], 0.6921 ± 0.0018; (genetic background: wild type) 0.722 ± 0.031.

In the case of EDADNDNDYDHE [SAP155 C-terminal 12 aa], the protein stability index under setting [1] stood at 0.677 ± 0.035 and the protein stability index (genetic background: wild type) is 0.682 ± 0.0061.

For EDHRDISGKDVN [UBP1 C-terminal 12 aa], the protein stability index was determined as 0.68575 ± 0.0005 under setting [1] and 0.687 ± 0.033 (genetic background: wild type).

EDLDADGDHKLV [TUB4 C-terminal 12 aa]: the protein stability index runs as follows: under setting [1], 0.6839 ± 0.0032; (genetic background: wild type) 0.672 ± 0.0083.

Take EDLDSDLFSEVE [SSF1 C-terminal 12 aa]: the protein stability index reads like this: under setting [1], 0.682 ± 0.02; (genetic background: wild type) 0.732 ± 0.027.

In the case of EEEKRHGINLKC [GUP2 C-terminal 12 aa], the protein stability index is, setting by setting: under setting [1], 0.6905 ± 0.004; (genetic background: wild type) 0.687 ± 0.045.

Turning to EEFINKLVKAMN [RPL7B C-terminal 12 aa], the protein stability index is 0.649 ± 0.012 under setting [1] and 0.6163 ± 0.0019 (genetic background: wild type).

EEGIDPSTYLNN [SUB2 C-terminal 12 aa]: the protein stability index reads like this: under setting [1], 0.709 ± 0.033; (genetic background: wild type) 0.684 ± 0.014.

In the case of EEHHFYREHIFT [OCA4 C-terminal 12 aa], the protein stability index was 0.7231 ± 0.0018 under setting [1] and 0.7118 ± 0.0058 (genetic background: wild type).

As to EEKTKKEKSLLQ [NPP2 C-terminal 12 aa], the protein stability index runs as follows: under setting [1], 0.7035 ± 0.0011; (genetic background: wild type) 0.726 ± 0.072.

As to “EELPSDIATLLN [YKR059W; YJL138C C-terminal 12 aa]”, the protein stability index stood at 0.7021 ± 0.00081 under setting [1] and 0.716 ± 0.031 (genetic background: wild type).

Regarding EESDSPESTAFY [PMC1 C-terminal 12 aa], the protein stability index amounted to 0.699 ± 0.01 under setting [1] and 0.6671 ± 0.0055 (genetic background: wild type).

Sequence EETEKKLKNLKL [YRB30 C-terminal 12 aa] registered a protein stability index under setting [1] of 0.703 ± 0.029 and a protein stability index (genetic background: wild type) of 0.684 ± 0.037.

Regarding EEVLEETKEKVE [PRT1 C-terminal 12 aa], the protein stability index was 0.689 ± 0.034 under setting [1] and 0.685 ± 0.013 (genetic background: wild type).

As for EEWSSKFGSNGS [YTA6 C-terminal 12 aa], the protein stability index reads like this: under setting [1], 0.7431 ± 0.0031; (genetic background: wild type) 0.725 ± 0.014.

As to EFLQIMKARISK [SEC24 C-terminal 12 aa], the protein stability index under setting [1] amounted to 0.686 ± 0.011 and the protein stability index (genetic background: wild type) stood at 0.716 ± 0.048.

Turning to “EGRGYQQIHKLS [YHR139C-A C-terminal 12 aa]”, the protein stability index came out at 0.721 ± 0.018 under setting [1] and 0.253 ± 0.0035 (genetic background: wild type).

For the sequence EGSAFKKQKHYR [NOP9 C-terminal 12 aa], the protein stability index by setting is: under setting [1], 0.703 ± 0.0097; (genetic background: wild type) 0.701 ± 0.012.

In turn, “EIALRKSGAVGS [YMR008C-A C-terminal 12 aa]” came in with a protein stability index under setting [1] of 0.689 ± 0.008 and a protein stability index (genetic background: wild type) of 0.6727 ± 0.0038.

On to “EIGGLLLQSFYN [YPL119C-A C-terminal 12 aa]”, for which the protein stability index reads like this: under setting [1], 0.687 ± 0.039; (genetic background: wild type) 0.7378 ± 0.0018.

EIGHMYQKIKKS [MNN11 C-terminal 12 aa]: the protein stability index stood at 0.721 ± 0.0077 under setting [1] and 0.317 ± 0.014 (genetic background: wild type).

As to EIKCCHNGRALK [SAT4 C-terminal 12 aa], the protein stability index under setting [1] was 0.668 ± 0.023 and the protein stability index (genetic background: wild type) stood at 0.697 ± 0.06.

For the sequence EIKQRNLRMQRQ [MPO1 C-terminal 12 aa], the protein stability index amounted to 0.683 ± 0.026 under setting [1] and 0.678 ± 0.01 (genetic background: wild type).

Consider EKAKKSLSKMFS [CPR6 C-terminal 12 aa], for which the protein stability index runs as follows: under setting [1], 0.688 ± 0.018; (genetic background: wild type) 0.6927 ± 0.0033.

For the sequence EKLKLLNSQQKD [PET191 C-terminal 12 aa], the protein stability index worked out at 0.682 ± 0.014 under setting [1] and 0.722 ± 0.029 (genetic background: wild type).

Take ELASSILKELKL [KIN1 C-terminal 12 aa]: the protein stability index reads like this: under setting [1], 0.707 ± 0.022; (genetic background: wild type) 0.703 ± 0.054.

Regarding ELDDILGSDSDF [MPH1 C-terminal 12 aa], the protein stability index is, setting by setting: under setting [1], 0.711 ± 0.02; (genetic background: wild type) 0.6837 ± 0.0036.

Turning to ELEELLEPILAN [GRX1 C-terminal 12 aa], the protein stability index amounted to 0.406 ± 0.028 under setting [1] and 0.4708 ± 0.00077 (genetic background: wild type).

The sequence ELFTIISRIIED [TSL1 C-terminal 12 aa] came in with a protein stability index under setting [1] of 0.702 ± 0.016 and a protein stability index (genetic background: wild type) of 0.711 ± 0.046.

For ELIEKLKEVKAI [CIR1 C-terminal 12 aa], the protein stability index is 0.686 ± 0.018 under setting [1] and 0.34 ± 0.013 (genetic background: wild type).

Regarding ELKINNDGRLVN [SEC66 C-terminal 12 aa], the protein stability index came out at 0.7137 ± 0.0053 under setting [1] and 0.714 ± 0.074 (genetic background: wild type).

Take ELKKRFDALRRK [IST1 C-terminal 12 aa]: the protein stability index runs as follows: under setting [1], 0.686 ± 0.015; (genetic background: wild type) 0.647 ± 0.0071.

In the case of ELLRIHNSHLRN [FOL3 C-terminal 12 aa], the protein stability index is 0.715 ± 0.031 under setting [1] and 0.709 ± 0.042 (genetic background: wild type).

Sequence ELWYKSFGPHDE [APC1 C-terminal 12 aa] registered a protein stability index under setting [1] of 0.7 ± 0.027 and a protein stability index (genetic background: wild type) of 0.7187 ± 0.0068.

In the case of ENWIHVSCLSFM [LIN1 C-terminal 12 aa], the protein stability index by setting is: under setting [1], 0.6634 ± 0.0048; (genetic background: wild type) 0.6503 ± 0.0039.

In the case of EQITSSLQEASE [FSH1 C-terminal 12 aa], the protein stability index is 0.67 ± 0.016 under setting [1] and 0.656 ± 0.0082 (genetic background: wild type).

On to EQNFHFQFPPTN [IOC2 C-terminal 12 aa], for which the protein stability index runs as follows: under setting [1], 0.7147 ± 0.0049; (genetic background: wild type) 0.729 ± 0.021.

As to ERDTTTKPSKRR [KEL3 C-terminal 12 aa], the protein stability index is, setting by setting: under setting [1], 0.7092 ± 0.0049; (genetic background: wild type) 0.698 ± 0.013.

On to ERNPTQRPQRRY [RPS10A C-terminal 12 aa], for which the protein stability index by setting is: under setting [1], 0.728 ± 0.036; (genetic background: wild type) 0.679 ± 0.036.

Turning to ERPIVASTSPIA [TPH3 C-terminal 12 aa], the protein stability index was 0.71247 ± 4.2e-05 under setting [1] and 0.681 ± 0.0089 (genetic background: wild type).

Consider ERWVRMGELMHY [YBR184W C-terminal 12 aa], for which the protein stability index was 0.686 ± 0.018 under setting [1] and 0.538 ± 0.058 (genetic background: wild type).

As to ERYTSIESEIVV [APE4 C-terminal 12 aa], the protein stability index worked out at 0.6735 ± 0.0063 under setting [1] and 0.673 ± 0.023 (genetic background: wild type).

Take ESKDDDDDDDWE [DOS2 C-terminal 12 aa]: the protein stability index stood at 0.709 ± 0.038 under setting [1] and 0.648 ± 0.0095 (genetic background: wild type).

ESRLFISDGAVF [MON1 C-terminal 12 aa]: the protein stability index turned out to be 0.696 ± 0.0082 under setting [1] and 0.713 ± 0.041 (genetic background: wild type).

On to ESSSPSQLQHEA [PHO84 C-terminal 12 aa], for which the protein stability index by setting is: under setting [1], 0.6938 ± 0.006; (genetic background: wild type) 0.682 ± 0.024.

Take ESTGHVDFGQNR [OTU1 C-terminal 12 aa]: the protein stability index stood at 0.7 ± 0.012 under setting [1] and 0.703 ± 0.012 (genetic background: wild type).

ETAENIAKYIRN [NPA3 C-terminal 12 aa]: the protein stability index runs as follows: under setting [1], 0.682 ± 0.024; (genetic background: wild type) 0.661 ± 0.035.

As for ETMVRIRVDGNE [DAD2 C-terminal 12 aa], the protein stability index was found to be 0.665 ± 0.027 under setting [1] and 0.676 ± 0.025 (genetic background: wild type).

As to EVDDDGEIDGLF [ADE3 C-terminal 12 aa], the protein stability index amounted to 0.7153 ± 0.0044 under setting [1] and 0.692 ± 0.021 (genetic background: wild type).

Turning to “EVPGWQEYYDKL [YOR133W; YDR385W C-terminal 12 aa]”, the protein stability index is, setting by setting: under setting [1], 0.72 ± 0.018; (genetic background: wild type) 0.71 ± 0.016.

The values are drawn from the supplement of paper PMC10724198.
